# Test results taken from paper PMC10786891, “Massively parallel profiling of RNA-targeting CRISPR-Cas13d”.
# Substitutions are numbered along the chain they refer to. In names and notes the source's numbering stands.
# T1: EsCas13d, nuclease-dead (Eubacterium siraeum, UniProt B0MS50, R295A;H300A;R849A;H854A)
# T1 sequence: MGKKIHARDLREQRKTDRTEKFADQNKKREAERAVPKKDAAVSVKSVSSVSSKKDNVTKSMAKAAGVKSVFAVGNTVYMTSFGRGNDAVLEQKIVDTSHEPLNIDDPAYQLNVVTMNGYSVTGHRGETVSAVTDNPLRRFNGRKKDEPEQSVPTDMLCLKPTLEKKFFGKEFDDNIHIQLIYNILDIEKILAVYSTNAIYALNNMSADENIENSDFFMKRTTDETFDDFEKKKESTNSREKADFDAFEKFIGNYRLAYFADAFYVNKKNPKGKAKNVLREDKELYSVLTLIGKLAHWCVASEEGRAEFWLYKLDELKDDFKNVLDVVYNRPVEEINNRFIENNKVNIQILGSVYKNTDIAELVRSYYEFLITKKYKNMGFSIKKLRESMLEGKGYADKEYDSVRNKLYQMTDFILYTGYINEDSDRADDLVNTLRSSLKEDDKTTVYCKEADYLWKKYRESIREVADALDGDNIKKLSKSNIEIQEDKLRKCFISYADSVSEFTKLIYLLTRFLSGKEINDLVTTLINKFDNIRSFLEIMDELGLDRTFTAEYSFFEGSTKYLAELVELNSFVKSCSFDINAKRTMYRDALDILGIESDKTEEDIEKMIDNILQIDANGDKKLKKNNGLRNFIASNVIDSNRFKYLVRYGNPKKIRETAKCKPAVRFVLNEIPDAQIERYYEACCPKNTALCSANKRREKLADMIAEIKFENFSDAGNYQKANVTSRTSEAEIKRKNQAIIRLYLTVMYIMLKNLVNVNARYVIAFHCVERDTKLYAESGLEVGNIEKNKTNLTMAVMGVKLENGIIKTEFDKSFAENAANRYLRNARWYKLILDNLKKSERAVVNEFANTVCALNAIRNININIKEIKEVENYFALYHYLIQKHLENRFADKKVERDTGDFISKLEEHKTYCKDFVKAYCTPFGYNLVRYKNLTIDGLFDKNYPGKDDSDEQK
# B1: target 1 A1G,U8A (mixed)
# RNA 1: CACCCGUGCAAAAAUGCAGGGGUCUAAAACUGAGCGGAUAACCUCUCUAUGG
# RNA 2: GGGAAUGGAUCCACAUCUACGAAUUCGUACCAUAGAGAGGUUAACCGCUCGCCGAGAUCGGAAGAGCACACGU
# B2: target 1 G15C,A16G (mixed)
# RNA 1: B1 RNA 1
# RNA 2: B1 RNA 2 with A36G, G37C, A44U, G51A
# B3: target 1 C7U,U11C (mixed)
# RNA 1: B1 RNA 1
# RNA 2: B1 RNA 2 with U41C, A44U, C45U, G51A
# B4: target 1 insG 3' of 19,insG 3' of 9 (mixed)
# RNA 1: B1 RNA 1
# RNA 2: GGGAAUGGAUCCACAUCUACGAAUUCGUACCAUGAGAGAGGUUAGUCCGCUCACCGAGAUCGGAAGAGCACACGU
# B5: target 1 A1C,U8A (mixed)
# RNA 1: B1 RNA 1
# RNA 2: B1 RNA 2 with G51C
# B6: target 1 insU 3' of 15,insG 3' of 7 (mixed)
# RNA 1: B1 RNA 1
# RNA 2: B4 RNA 2 with G34A, A35G, G36A, A37G, G38U, G45U, U46C, C47G
# B7: target 1 U3A,C7A (mixed)
# RNA 1: B1 RNA 1
# RNA 2: B1 RNA 2 with A44U, C45A, U49A, G51A
# B8: target 1 insC 3' of 19,insU 3' of 15 (mixed)
# RNA 1: B1 RNA 1
# RNA 2: B4 RNA 2 with G34C, A39U, G40A, U42G, A44U, G45A
# B9: target 1 U8C,A20U (mixed)
# RNA 1: B1 RNA 1
# RNA 2: B1 RNA 2 with A32U, A44C, G51A
# B10: target 1 insA 3' of 15,insG 3' of 11 (mixed)
# RNA 1: B1 RNA 1
# RNA 2: B4 RNA 2 with G34A, A35G, G36A, A37G, G38A, U43G, A44U, G45A
# B11: target 1 insC 3' of 17,insG 3' of 1 (mixed)
# RNA 1: B1 RNA 1
# RNA 2: GGGAAUGGAUCCACAUCUACGAAUUCGUACCAUAGCAGAGGUUAUCCGCUCAGCCGAGAUCGGAAGAGCACACGU
# B12: target 1 U8A (mixed)
# RNA 1: B1 RNA 1
# RNA 2: B1 RNA 2 with G51A
# B13: target 1 U3C,U8G (mixed)
# RNA 1: B1 RNA 1
# RNA 2: B1 RNA 2 with A44G, U49C, G51A
# B14: target 1 U3C,G5A (mixed)
# RNA 1: B1 RNA 1
# RNA 2: B1 RNA 2 with A44U, G47A, U49C, G51A
# B15: target 1 G12U,C21U (mixed)
# RNA 1: B1 RNA 1
# RNA 2: B1 RNA 2 with C31U, G40U, A44U, G51A
# B16: target 3 G3U,A5U (mixed)
# RNA 1: CACCCGUGCAAAAUUGCAGGGGUCUAAAACGACCUGAAUAUUUCAGAUCAAA
# RNA 2: GGGAAUGGAUCCACAUCUACGAAUUCGUUUUUGAUCUGAAAUAUUCUGUUCUGCAGAUCGGAAGAGCACACGU
# B17: target 3 insA 3' of 6,insA 3' of 4 (mixed)
# RNA 1: B16 RNA 1
# RNA 2: GGGAAUGGAUCCACAUCUACGAAUUCGUUUUUGAUCUGAAAUAUUCAAGAGUCUGCAGAUCGGAAGAGCACACGU
# B18: target 3 insG 3' of 5,insU 3' of 5 (mixed)
# RNA 1: B16 RNA 1
# RNA 2: B17 RNA 2 with A48G, G49U, A50G
# B19: target 3 insG 3' of 6,insC 3' of 4 (mixed)
# RNA 1: B16 RNA 1
# RNA 2: B17 RNA 2 with A47G, A50C
# B20: target 3 U8G,U22C (mixed)
# RNA 1: B16 RNA 1
# RNA 2: B16 RNA 2 with U30C, U44G, U47A, U49G
# B21: target 3 insG 3' of 22,insG 3' of 6 (mixed)
# RNA 1: B16 RNA 1
# RNA 2: GGGAAUGGAUCCACAUCUACGAAUUCGUUUGUUGAUCUGAAAUAUUCGAGGUCUGCAGAUCGGAAGAGCACACGU
# B22: target 3 insA 3' of 22,insC 3' of 22 (mixed)
# RNA 1: B16 RNA 1
# RNA 2: GGGAAUGGAUCCACAUCUACGAAUUCGUUUACUUGAUCUGAAAUAUUCAGGUCUGCAGAUCGGAAGAGCACACGU
# B23: target 3 insG 3' of 8,insU 3' of 6 (mixed)
# RNA 1: B16 RNA 1
# RNA 2: B17 RNA 2 with U45G, C46U, A47C, A48U, G49A, A50G
# B24: target 3 insA 3' of 10,insU 3' of 5 (mixed)
# RNA 1: B16 RNA 1
# RNA 2: B17 RNA 2 with U44A, C46U, A47C, G49U, A50G
# B25: target 3 insU 3' of 9,insC 3' of 7 (mixed)
# RNA 1: B16 RNA 1
# RNA 2: B17 RNA 2 with C46U, A47C, A48C, G49A, A50G
# B26: target 3 insA 3' of 4,insC 3' of 4 (mixed)
# RNA 1: B16 RNA 1
# RNA 2: B17 RNA 2 with A48G, G49A, A50C
# B27: target 3 insG 3' of 22,insU 3' of 22 (mixed)
# RNA 1: B16 RNA 1
# RNA 2: B22 RNA 2 with A31G, C32U
# B28: target 3 insA 3' of 10,insG 3' of 2 (mixed)
# RNA 1: B16 RNA 1
# RNA 2: B17 RNA 2 with U44A, C46U, A47C, A50G, G51U, U52G
# B29: target 3 G4C,U8G (mixed)
# RNA 1: B16 RNA 1
# RNA 2: B16 RNA 2 with U44G, U47A, G48C, U49G
# B30: target 3 insC 3' of 8,insA 3' of 7 (mixed)
# RNA 1: B16 RNA 1
# RNA 2: B17 RNA 2 with U45C, C46U, A48C, G49A, A50G
# B31: target 3 C6G,A11C (mixed)
# RNA 1: B16 RNA 1
# RNA 2: B16 RNA 2 with A41C, C46G, U47A, U49G
# B32: target 3 insG 3' of 7,insC 3' of 4 (mixed)
# RNA 1: B16 RNA 1
# RNA 2: B17 RNA 2 with C46G, A47C, A50C
# B33: target 3 insC 3' of 21,insG 3' of 6 (mixed)
# RNA 1: B16 RNA 1
# RNA 2: B21 RNA 2 with G31U, U32C
# Target: T1, EsCas13d, nuclease-dead
# Assay: crRNA (strand 1, pre-loaded); Mg2+; 40 mM Tris-HCl pH 7.5, 150 mM NaCl, 6 mM MgCl2, 1 mM DTT, 0.1% Tween-20, 0.2 mg/ml BSA; 25 C; 10 min per concentration, then washed
# Details: tags: His6-TwinStrep-SUMO cleaved; N-terminal SNAP kept (SNAP-Surface 488); label: 3' end held by stalled T7 RNA polymerase
row,Binder,Kd [nM]
1,B1,31.7 ± 1.8
2,B2,71 ± 11
3,B3,8.7 ± 0.4
4,B4,44 ± 5
5,B5,25.5 ± 1.8
6,B6,10.7 ± 0.4
7,B7,7 ± 0.4
8,B8,62 ± 26
9,B9,80 ± 8
10,B10,24 ± 4
11,B11,44 ± 16
12,B12,22.2 ± 1.7
13,B13,18.6 ± 1.2
14,B14,67 ± 22
15,B15,7.4 ± 0.5
16,B16,32.5 ± 4.5
17,B17,10.8 ± 0.9

row,Binder,Kd [nM]
1,B18,18.1 ± 2.95
2,B19,13.2 ± 1.5
3,B20,90 ± 40
4,B21,90 ± 41.5
5,B22,15 ± 1.4
6,B23,28.3 ± 3.3
7,B24,58.5 ± 6.5
8,B25,100 ± 21
9,B26,~110
10,B27,28 ± 4.5
11,B28,42 ± 6.5
12,B29,69 ± 8
13,B30,40.5 ± 4
14,B31,30.1 ± 4.65
15,B32,64 ± 8
16,B33,100 ± 40
